Source: IntAct's records for PubMed 27462807

Assays:
tp53b_human TP53BP1 [1] = target: tp53b_human TP53BP1 (UniProt Q12888)
tp53b_human TP53BP1 [2] = target: tp53b_human TP53BP1 (UniProt Q12888); remark: listed apart in the source

tp53b_human TP53BP1, sequence (Q12888 whole entry): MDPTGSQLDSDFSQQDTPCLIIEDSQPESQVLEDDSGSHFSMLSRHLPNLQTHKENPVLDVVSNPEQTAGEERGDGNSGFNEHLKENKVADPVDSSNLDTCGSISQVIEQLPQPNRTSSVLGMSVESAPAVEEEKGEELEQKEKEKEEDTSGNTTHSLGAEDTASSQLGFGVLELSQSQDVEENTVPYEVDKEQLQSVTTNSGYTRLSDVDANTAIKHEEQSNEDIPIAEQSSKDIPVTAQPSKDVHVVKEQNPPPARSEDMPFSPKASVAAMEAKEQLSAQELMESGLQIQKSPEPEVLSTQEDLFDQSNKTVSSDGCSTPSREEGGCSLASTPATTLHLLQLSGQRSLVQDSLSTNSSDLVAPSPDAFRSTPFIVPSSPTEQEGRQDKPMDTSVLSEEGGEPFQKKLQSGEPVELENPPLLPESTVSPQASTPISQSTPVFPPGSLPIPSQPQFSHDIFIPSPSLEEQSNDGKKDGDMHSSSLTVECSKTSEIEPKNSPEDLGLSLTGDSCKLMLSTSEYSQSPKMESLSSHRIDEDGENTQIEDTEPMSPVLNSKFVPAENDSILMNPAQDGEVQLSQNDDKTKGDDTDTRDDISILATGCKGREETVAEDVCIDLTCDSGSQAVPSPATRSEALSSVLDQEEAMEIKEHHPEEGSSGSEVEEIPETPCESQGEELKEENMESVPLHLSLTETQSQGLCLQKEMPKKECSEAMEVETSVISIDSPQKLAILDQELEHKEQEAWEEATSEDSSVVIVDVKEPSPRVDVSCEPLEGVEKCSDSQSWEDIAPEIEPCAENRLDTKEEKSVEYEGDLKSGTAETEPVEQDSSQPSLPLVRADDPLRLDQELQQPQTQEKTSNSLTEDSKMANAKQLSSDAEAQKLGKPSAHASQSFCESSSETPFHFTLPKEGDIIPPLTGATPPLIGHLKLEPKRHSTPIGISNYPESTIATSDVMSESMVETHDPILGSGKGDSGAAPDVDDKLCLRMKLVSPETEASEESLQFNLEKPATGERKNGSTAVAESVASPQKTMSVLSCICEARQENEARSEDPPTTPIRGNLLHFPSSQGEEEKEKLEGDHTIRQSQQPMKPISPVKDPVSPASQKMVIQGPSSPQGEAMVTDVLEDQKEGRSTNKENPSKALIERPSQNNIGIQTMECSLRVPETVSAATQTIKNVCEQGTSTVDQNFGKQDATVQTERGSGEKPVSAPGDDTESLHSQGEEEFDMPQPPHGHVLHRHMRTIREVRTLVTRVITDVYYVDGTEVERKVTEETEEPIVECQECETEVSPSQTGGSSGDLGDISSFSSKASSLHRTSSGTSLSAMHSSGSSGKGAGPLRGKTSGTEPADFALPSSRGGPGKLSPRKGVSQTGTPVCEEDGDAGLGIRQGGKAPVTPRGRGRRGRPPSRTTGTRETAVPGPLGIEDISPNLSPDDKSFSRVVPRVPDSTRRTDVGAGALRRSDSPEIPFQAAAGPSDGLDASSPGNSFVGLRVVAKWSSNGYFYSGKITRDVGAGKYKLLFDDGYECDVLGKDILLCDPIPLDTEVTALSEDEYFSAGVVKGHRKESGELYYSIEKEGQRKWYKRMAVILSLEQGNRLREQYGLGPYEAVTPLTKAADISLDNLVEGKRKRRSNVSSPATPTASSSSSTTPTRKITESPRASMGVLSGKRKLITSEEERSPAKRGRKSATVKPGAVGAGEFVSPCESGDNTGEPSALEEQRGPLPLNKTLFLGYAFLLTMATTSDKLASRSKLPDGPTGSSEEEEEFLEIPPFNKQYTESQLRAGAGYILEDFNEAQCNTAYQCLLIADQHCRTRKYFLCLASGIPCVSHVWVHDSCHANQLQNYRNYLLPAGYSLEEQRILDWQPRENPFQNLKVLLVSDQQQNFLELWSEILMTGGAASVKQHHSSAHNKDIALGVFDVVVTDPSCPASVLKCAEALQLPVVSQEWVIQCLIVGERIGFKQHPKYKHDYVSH

Substance	effect of a mutation on the interaction (tp53b_human TP53BP1 [1])	effect of a mutation on the interaction (tp53b_human TP53BP1 [2])
Histone H2B type 1-C/E/F/G/I (Homo sapiens) (from UniProt P62807) E106C	with no effect	
Histone H2B type 1-C/E/F/G/I (Homo sapiens) (from UniProt P62807) N85C		with no effect
